Test results from patent US20040087777A1 (NEURALAB, published 2004).

Legend:
Test in all cases: rNET
… analog, Residue 8 = G = molecular target: T1, … analog, Residue 8 = G
T1 peptide: DAEFRHDGGY
Experimental: (§1) The rNET epitope map assay provides information about the contribution of individual residues within the epitope to the overall binding activity of the antibody. rNET analysis uses synthesized systematic single substituted peptide analogs. Binding of an antibody being tested is determined against native peptide (native antigen) and against 19 alternative “single substituted” peptides, each peptide being substituted at a first position with one of 19 non-native amino acids for that position. A profile is generated reflecting the effect of substitution at that position with the various non-native residues. Profiles are likewise generated at successive positions along the antigenic peptide. The combined profile, or epitope map, (reflecting substitution at each position with all 19 non-native residues) can then be compared to a map similarly generated for a second antibody.
(§2) Antibodies were tested for binding against the native Aβ peptide [sequence] […] Residues 1-8 were systematically substituted with each of the 19 non-native residues for that position.

… analog, Residue 7 = E = molecular target: T2, … analog, Residue 7 = E
T2 peptide: DAEFRHESGY
Experimental: as §1, §2

… analog, Residue 2 = T = molecular target: T3, … analog, Residue 2 = T
T3 peptide: DTEFRHDSGY
Experimental: as §1, §2

… analog, Residue 1 = P = molecular target: T4, … analog, Residue 1 = P
T4 peptide: PAEFRHDSGY
Experimental: as §1, §2

… analog, Residue 8 = R = molecular target: T5, … analog, Residue 8 = R
T5 peptide: DAEFRHDRGY
Experimental: as §1, §2

… analog, Residue 8 = E = molecular target: T6, … analog, Residue 8 = E
T6 peptide: DAEFRHDEGY
Experimental: as §1, §2

… analog, Residue 2 = Y = molecular target: T7, … analog, Residue 2 = Y
T7 peptide: DYEFRHDSGY
Experimental: as §1, §2

… analog, Residue 3 = Q = molecular target: T8, … analog, Residue 3 = Q
T8 peptide: DAQFRHDSGY
Experimental: as §1, §2

… analog, Residue 1 = T = molecular target: T9, … analog, Residue 1 = T
T9 peptide: TAEFRHDSGY
Experimental: as §1, §2

… analog, Residue 1 = A = molecular target: T10, … analog, Residue 1 = A
T10 peptide: AAEFRHDSGY
Experimental: as §1, §2

… analog, Residue 1 = N = molecular target: T11, … analog, Residue 1 = N
T11 peptide: NAEFRHDSGY
Experimental: as §1, §2

… analog, Residue 2 = D = molecular target: T12, … analog, Residue 2 = D
T12 peptide: DDEFRHDSGY
Experimental: as §1, §2

… analog, Residue 3 = W = molecular target: T13, … analog, Residue 3 = W
T13 peptide: DAWFRHDSGY
Experimental: as §1, §2

… analog, Residue 2 = C = molecular target: T14, … analog, Residue 2 = C
T14 peptide: DCEFRHDSGY
Experimental: as §1, §2

… analog, Residue 8 = D = molecular target: T15, … analog, Residue 8 = D
T15 peptide: DAEFRHDDGY
Experimental: as §1, §2

… analog, Residue 8 = V = molecular target: T16, … analog, Residue 8 = V
T16 peptide: DAEFRHDVGY
Experimental: as §1, §2

… analog, Residue 2 = E = molecular target: T17, … analog, Residue 2 = E
T17 peptide: DEEFRHDSGY
Experimental: as §1, §2

… analog, Residue 3 = L = molecular target: T18, … analog, Residue 3 = L
T18 peptide: DALFRHDSGY
Experimental: as §1, §2

… analog, Residue 8 = W = molecular target: T19, … analog, Residue 8 = W
T19 peptide: DAEFRHDWGY
Experimental: as §1, §2

… analog, Residue 3 = F = molecular target: T20, … analog, Residue 3 = F
T20 peptide: DAFFRHDSGY
Experimental: as §1, §2

… analog, Residue 2 = Q = molecular target: T21, … analog, Residue 2 = Q
T21 peptide: DQEFRHDSGY
Experimental: as §1, §2

… analog, Residue 3 = Y = molecular target: T22, … analog, Residue 3 = Y
T22 peptide: DAYFRHDSGY
Experimental: as §1, §2

… analog, Residue 2 = P = molecular target: T23, … analog, Residue 2 = P
T23 peptide: DPEFRHDSGY
Experimental: as §1, §2

… analog, Residue 3 = P = molecular target: T24, … analog, Residue 3 = P
T24 peptide: DAPFRHDSGY
Experimental: as §1, §2

… analog, Residue 8 = T = molecular target: T25, … analog, Residue 8 = T
T25 peptide: DAEFRHDTGY
Experimental: as §1, §2

… analog, Residue 8 = F = molecular target: T26, … analog, Residue 8 = F
T26 peptide: DAEFRHDFGY
Experimental: as §1, §2

… analog, Residue 3 = T = molecular target: T27, … analog, Residue 3 = T
T27 peptide: DATFRHDSGY
Experimental: as §1, §2

… analog, Residue 2 = R = molecular target: T28, … analog, Residue 2 = R
T28 peptide: DREFRHDSGY
Experimental: as §1, §2

… analog, Residue 3 = V = molecular target: T29, … analog, Residue 3 = V
T29 peptide: DAVFRHDSGY
Experimental: as §1, §2

… analog, Residue 3 = N = molecular target: T30, … analog, Residue 3 = N
T30 peptide: DANFRHDSGY
Experimental: as §1, §2

… analog, Residue 1 = L = molecular target: T31, … analog, Residue 1 = L
T31 peptide: LAEFRHDSGY
Experimental: as §1, §2

… analog, Residue 2 = I = molecular target: T32, … analog, Residue 2 = I
T32 peptide: DIEFRHDSGY
Experimental: as §1, §2

… analog, Residue 2 = H = molecular target: T33, … analog, Residue 2 = H
T33 peptide: DHEFRHDSGY
Experimental: as §1, §2

… analog, Residue 1 = W = molecular target: T34, … analog, Residue 1 = W
T34 peptide: WAEFRHDSGY
Experimental: as §1, §2

… analog, Residue 1 = M = molecular target: T35, … analog, Residue 1 = M
T35 peptide: MAEFRHDSGY
Experimental: as §1, §2

… analog, Residue 1 = I = molecular target: T36, … analog, Residue 1 = I
T36 peptide: IAEFRHDSGY
Experimental: as §1, §2

… analog, Residue 1 = Y = molecular target: T37, … analog, Residue 1 = Y
T37 peptide: YAEFRHDSGY
Experimental: as §1, §2

… analog, Residue 1 = Q = molecular target: T38, … analog, Residue 1 = Q
T38 peptide: QAEFRHDSGY
Experimental: as §1, §2

… analog, Residue 8 = Q = molecular target: T39, … analog, Residue 8 = Q
T39 peptide: DAEFRHDQGY
Experimental: as §1, §2

… analog, Residue 8 = C = molecular target: T40, … analog, Residue 8 = C
T40 peptide: DAEFRHDCGY
Experimental: as §1, §2

… analog, Residue 1 = C = molecular target: T41, … analog, Residue 1 = C
T41 peptide: CAEFRHDSGY
Experimental: as §1, §2

… analog, Residue 8 = H = molecular target: T42, … analog, Residue 8 = H
T42 peptide: DAEFRHDHGY
Experimental: as §1, §2

… analog, Residue 1 = K = molecular target: T43, … analog, Residue 1 = K
T43 peptide: KAEFRHDSGY
Experimental: as §1, §2

… analog, Residue 8 = I = molecular target: T44, … analog, Residue 8 = I
T44 peptide: DAEFRHDIGY
Experimental: as §1, §2

… analog, Residue 3 = A = molecular target: T45, … analog, Residue 3 = A
T45 peptide: DAAFRHDSGY
Experimental: as §1, §2

… analog, Residue 1 = G = molecular target: T46, … analog, Residue 1 = G
T46 peptide: GAEFRHDSGY
Experimental: as §1, §2

… analog, Residue 3 = D = molecular target: T47, … analog, Residue 3 = D
T47 peptide: DADFRHDSGY
Experimental: as §1, §2

… analog, Residue 2 = S = molecular target: T48, … analog, Residue 2 = S
T48 peptide: DSEFRHDSGY
Experimental: as §1, §2

… analog, Residue 1 = F = molecular target: T49, … analog, Residue 1 = F
T49 peptide: FAEFRHDSGY
Experimental: as §1, §2

… analog, Residue 3 = H = molecular target: T50, … analog, Residue 3 = H
T50 peptide: DAHFRHDSGY
Experimental: as §1, §2

… analog, Residue 3 = S = molecular target: T51, … analog, Residue 3 = S
T51 peptide: DASFRHDSGY
Experimental: as §1, §2
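Note: antibody binding measured against single-substituted peptide analogs, each epitope position replaced by every one of 19 non-native amino acids, compared with binding to the native Aβ peptide.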

B1: murine monoclonal antibody 3D6 (antibody, mouse IgG2b, V domains shown)
VH: EVKLVESGGGLVKPGASLKLSCAASGFTFSNYGMSWVRQNSDKRLEWVASIRSGGGRTYYSDNVKGRFTISRENAKNTLYLQMSSLKSEDTALYYCVRYDHYSGSSDYWGQGTTVTVSS
VL: not shown
notes: also called mAb 3D6; m3D6
OD (… analog, Residue 8 = G): 0.569 OD
OD (… analog, Residue 7 = E): 0.565 OD
OD (… analog, Residue 2 = T): 0.552 OD
OD (… analog, Residue 1 = P): 0.069 OD
OD (… analog, Residue 8 = R): 0.589 OD
OD (… analog, Residue 8 = E): 0.601 OD
OD (… analog, Residue 2 = Y): 0.547 OD
OD (… analog, Residue 3 = Q): 0.153 OD
OD (… analog, Residue 1 = T): 0.45 OD
OD (… analog, Residue 1 = A): 0.464 OD
OD (… analog, Residue 1 = N): 0.587 OD
OD (… analog, Residue 2 = D): 0.119 OD
OD (… analog, Residue 3 = W): 0.149 OD
OD (… analog, Residue 2 = C): 0.553 OD
OD (… analog, Residue 8 = D): 0.586 OD
OD (… analog, Residue 8 = V): 0.578 OD
OD (… analog, Residue 2 = E): 0.563 OD
OD (… analog, Residue 3 = L): 0.019 OD
OD (… analog, Residue 8 = W): 0.567 OD
OD (… analog, Residue 3 = F): 0.034 OD
OD (… analog, Residue 2 = Q): 0.567 OD
OD (… analog, Residue 3 = Y): 0.016 OD
OD (… analog, Residue 2 = P): 0.445 OD
OD (… analog, Residue 3 = P): 0.017 OD
OD (… analog, Residue 8 = T): 0.586 OD
OD (… analog, Residue 8 = F): 0.586 OD
OD (… analog, Residue 3 = T): 0.015 OD
OD (… analog, Residue 2 = R): 0.562 OD
OD (… analog, Residue 3 = V): 0.016 OD
OD (… analog, Residue 3 = N): 0.024 OD
OD (… analog, Residue 1 = L): 0.073 OD
OD (… analog, Residue 2 = I): 0.522 OD
OD (… analog, Residue 2 = H): 0.534 OD
OD (… analog, Residue 1 = W): 0.031 OD
OD (… analog, Residue 1 = M): 0.039 OD
OD (… analog, Residue 1 = I): 0.048 OD
OD (… analog, Residue 1 = Y): 0.341 OD
OD (… analog, Residue 1 = Q): 0.441 OD
OD (… analog, Residue 8 = Q): 0.59 OD
OD (… analog, Residue 8 = C): 0.583 OD
OD (… analog, Residue 1 = C): 0.45 OD
OD (… analog, Residue 8 = H): 0.559 OD
OD (… analog, Residue 1 = K): 0.033 OD
OD (… analog, Residue 8 = I): 0.568 OD
OD (… analog, Residue 3 = A): 0.038 OD
OD (… analog, Residue 1 = G): 0.569 OD
OD (… analog, Residue 3 = D): 0.019 OD
OD (… analog, Residue 2 = S): 0.587 OD
OD (… analog, Residue 1 = F): 0.034 OD
OD (… analog, Residue 3 = H): 0.016 OD
OD (… analog, Residue 3 = S): 0.016 OD
